The data set concerns the target T1, Cas1-Cas2 complex (native Cas1 + Cas2-His6) (Escherichia coli, UniProt Q46896;P45956 1-305;1-94).
T1 sequence 1: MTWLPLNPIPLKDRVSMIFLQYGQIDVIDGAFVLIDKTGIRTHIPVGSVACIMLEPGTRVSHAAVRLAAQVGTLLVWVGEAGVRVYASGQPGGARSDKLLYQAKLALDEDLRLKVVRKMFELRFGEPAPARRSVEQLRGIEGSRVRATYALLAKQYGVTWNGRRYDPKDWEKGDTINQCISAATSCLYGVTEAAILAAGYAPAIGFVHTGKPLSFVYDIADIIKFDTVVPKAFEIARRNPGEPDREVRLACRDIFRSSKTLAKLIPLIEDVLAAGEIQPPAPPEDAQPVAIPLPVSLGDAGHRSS
T1 sequence 2: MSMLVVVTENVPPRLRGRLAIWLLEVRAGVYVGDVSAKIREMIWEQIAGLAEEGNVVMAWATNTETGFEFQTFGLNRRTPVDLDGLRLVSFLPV
As to the kind of experiment: EMSA.

Turning to ATTTCAGCTACTCCGATGGCCCATATGCGGATT (ssDNA) [S1 oligonucleotide], the binding result was “no binding”.

On to ATTTCAGCTACTCCGATGGCCCATATGCGGATC (ssDNA) [S2 oligonucleotide], for which the binding result was “no binding”.

The record behind these values is PMC5389526.
